Key:
Experiment in all cases: ELISA; Fab fragments (IGH526, HCV1) coated ~2 μg per well; purified E1E2-DHD15 or E1E2-Fc serially diluted in 25 mM Tris, 150 mM NaCl, pH 7.4, 0.05% Tween-20, 1% BSA; detection by anti-FLAG M2 and/or HRP anti-mouse IgG
Settings in all cases: both partners purified
[1] = target: T1, E1E2-Fc heterodimer (HCV E1 and E2 ectodomains, Fc-tagged), mammalian cell expressed (hepatitis C virus genotype 1b, Con1, UniProt Q9WMX2)
T1 construct: source: HEK293F, transient (pMlink), secreted, purified

[2] = target: T2, E1E2-DHD15 heterodimer (HCV E1 and E2 ectodomains with the de novo designed heterodimeric tag DHD15), insect … (hepatitis C virus genotype 1b, Con1, UniProt Q9WMX2)
T2 construct: source: High-5 insect cells (baculovirus), secreted, purified (Ni-NTA, Flag M2, SEC)

[3] = target: T3, E1E2-DHD15 heterodimer (HCV E1 and E2 ectodomains with the de novo designed heterodimeric tag DHD15), … (hepatitis C virus genotype 1b, Con1, UniProt Q9WMX2)
T3 construct: source: HEK293F, transient (pMlink), secreted, purified

[4] = target: T4, E1E2-Fc oligomer (oligomeric SEC fraction of Fc-tagged HCV E1E2), expressed in HEK293 cells (hepatitis C virus genotype 1b, Con1, UniProt Q9WMX2)
T4 construct: also called E1E2 oligomer; oligomeric E1E2; source: HEK293F, transient (pMlink), secreted, purified (oligomer peak of the SEC)

Measured: binding result

B1: Fab fragment of neutralizing antibody HCV1 (Fab, V domains shown)
VH: EVQLLESGGGVVQPGRSLRLSCTASGFTFNNYGMHWVRQTPGKGLEWLAVIWFDENNKYYADSVRGRFTISRDNSKNTLFLQMNSLKTEDTAMYYCARDISLVRDAFIYFDFWGLGTLVTVSS
VL: ELTLTQSPATLSLSPGERATLSCRASQSVSSYLAWYQQKPGQAPRLLIYDASNRATGIPARFSGSGSGTDFTLTISSLEPEDFAVYYCQQRSNWITFGQGTRLEIK
notes: source: HEK293F, transient (pMlink), purified
binds: all assays above

From article PMC6530877 (PLoS Pathogens, 2019)
